Data reported in patent US12576050B2, “Dosage regime” (priority 2018, dated 2026).

Experiment: In vitro mucolysis of patient sputum
Conditions: very thick/purulent sputum, patient already on Pulmozyme
Method: Patient had very thick/purulent sputum. The sputum from this patient was responsive to 5% cysteamine DPI formulation. Addition of DNAse I (Pulmozyme) at physiological concentration is having no effect, but this patient is already on Pulmozyme and recently had the dose tripled. The patient's sputum responded to in vitro tests with cysteamine (see FIG. 7). The sputum response was conducted in accordance with the general method outlined in EBioMedicine 2 (2015) 1507-1512 “Cysteamine as a Future Intervention in Cystic Fibrosis Against Current and Emerging Pathogens: A Patient-based ex vivo Study Confirming its Antimicrobial and Mucoactive Potential in Sputum”, Graham Devereux et al.

B1: DNAse I (Pulmozyme): DNAse I (Pulmozyme) added at physiological concentration to sputum (protein, UniProt P24855 23-282, looked up)
Deoxyribonuclease-1: LKIAAFNIQTFGETKMSNATLVSYIVQILSRYDIALVQEVRDSHLTAVGKLLDNLNQDAPDTYHYVVSEPLGRNSYKERYLFVYRPDQVSAVDSYYYDDGCEPCGNDTFNREPAIVRFFSRFTEVREFAIVPLHAAPGDAVAEIDALYDVYLDVQEKWGLEDVMLMGDFNAGCSYVRPSQWSSIRLWTSPTFQWLIPDSADTTATPTHCAYDRIVVAGMLLRGAVVPDSALPFNFQAAYGLSDQLAQAISDHYPVEVMLK
Response of patient sputum (mucolysis): no effect
